By Kd is commonly meant the constant that tells how readily two partners part at equilibrium. As a reminder, the stoichiometry N is the number of molecules, sites or subunits per partner or assembly.

The results in this text go back to PMC11417181, “The SCR-17 and SCR-18 glycans in human complement factor H enhance its regulatory function” (The Journal of Biological Chemistry, 2024).

glycan = not defined here

The chains are these.
B1: complement factor H, native glycosylated, full-length, purified from human plasma (natural protein, UniProt P08603 19-1231, looked up)
chain: EDCNELPPRRNTEILTGSWSDQTYPEGTQAIYKCRPGYRSLGNVIMVCRKGEWVALNPLRKCQKRPCGHPGDTPFGTFTLTGGNVFEYGVKAVYTCNEGYQLLGEINYRECDTDGWTNDIPICEVVKCLPVTAPENGKIVSSAMEPDREYHFGQAVRFVCNSGYKIEGDEEMHCSDDGFWSKEKPKCVEISCKSPDVINGSPISQKIIYKENERFQYKCNMGYEYSERGDAVCTESGWRPLPSCEEKSCDNPYIPNGDYSPLRIKHRTGDEITYQCRNGFYPATRGNTAKCTSTGWIPAPRCTLKPCDYPDIKHGGLYHENMRRPYFPVAVGKYYSYYCDEHFETPSGSYWDHIHCTQDGWSPAVPCLRKCYFPYLENGYNQNYGRKFVQGKSIDVACHPGYALPKAQTTVTCMENGWSPTPRCIRVKTCSKSSIDIENGFISESQYTYALKEKAKYQCKLGYVTADGETSGSITCGKDGWSAQPTCIKSCDIPVFMNARTKNDFTWFKLNDTLDYECHDGYESNTGSTTGSIVCGYNGWSDLPICYERECELPKIDVHLVPDRKKDQYKVGEVLKFSCKPGFTIVGPNSVQCYHFGLSPDLPICKEQVQSCGPPPELLNGNVKEKTKEEYGHSEVVEYYCNPRFLMKGPNKIQCVDGEWTTLPVCIVEESTCGDIPELEHGWAQLSSPPYYYGDSVEFNCSESFTMIGHRSITCIHGVWTQLPQCVAIDKLKKCKSSNLIILEEHLKNKKEFDHNSNIRYRCRGKEGWIHTVCINGRWDPEVNCSMAQIQLCPPPPQIPNSHNMTTTLNYRDGEKVSVLCQENYLIQEGEEITCKDGRWQSIPLCVEKIPCSQPPQIEHGTINSSRSSQESYAHGTKLSYTCEGGFRISEENETTCYMGKWSSPPQCEGLPCKSPPEISHGVVAHMSDSYQYGEEVTYKCFEGFGIDGPAIAKCLGEKWSHPPSCIKTDCLSLPSFENAIPMGEKKDVYKAGEQVTYTCATYYKMDGASNVTCINSRWTGRPTCRDTSCVNPPTVQNAYIVSRQMSKYPSGERVRYQCRSPYEMFGDEEVMCLNGNWTEPPQCKDSTGKCGPPPPIDNGDITSFPLSVYAPASSVEYQCQNLYQLEGNKRITCRNGQWSEPPKCLHPCVISREIMENYNIALRWTAKQKLYSRTGESVEFVCKRGYRLSSRSHTLRTTCWDGKLEYPTCAKR
modifications: eight N-linked biantennary complex-type glycans, among them those at Asn1011 (SCR-17) and Asn1077 (SCR-18)
notes: human complement factor H, 20 SCR domains, Tyr402 form; For the SPR self-association experiment the immobilised copy was biotinylated (EZ-Link Biotinylation kit) and captured on a streptavidin chip; the copy in solution was not labelled; also called CFH; native CFH
B2: partially deglycosylated complement factor H (100 h PNGase F) (natural protein, human, UniProt P08603 19-1231, looked up)
chain: B1 chain
modifications: N-linked glycans partly removed with PNGase F: forms with three to six glycan chains were present
notes: Mixture of glycoforms; also called partially deglycosylated CFH; CFH partially glycosylated; source: purified from human plasma, then PNGase F for 100 h at 37 °C, gel filtration
B3: fully deglycosylated complement factor H (200 h PNGase F) (natural protein, human, UniProt P08603 19-1231, looked up)
chain: B1 chain
modifications: N-linked glycans removed with PNGase F: eight, seven, six or five removed, leaving none, one, two or three glycans
notes: Mixture of forms with none to three glycans left; also called fully deglycosylated CFH; CFH-De; source: purified from human plasma, then PNGase F for 200 h at 37 °C, gel filtration
B4: SCR-16/20, glycosylated five-domain C-terminal fragment of complement factor H expressed in Pichia pastoris (domain or fragment)
chain: EGLPCKSPPEISHGVVAHMSDSYQYGEEVTYKCFEGFGIDGPAIAKCLGEKWSHPPSCIKTDCLSLPSFENAIPMGEKKDVYKAGEQVTYTCATYYKMDGASNVTCINSRWTGRPTCRDTSCVNPPTVQNAYIVSRQMSKYPSGERVRYQCRSPYEMFGDEEVMCLNGNWTEPPQCKDSTGKCGPPPPIDNGDITSFPLSVYAPASSVEYQCQNLYQLEGNKRITCRNGQWSEPPKCLHPCVISREIMENYNIALRWTAKQKLYSRTGESVEFVCKRGYRLSSRSHTLRTTCWDGKLEYPTCAKR
modifications: Pichia hyperglycosylated N-linked glycans at Asn1011 and Asn1077
B5: SCR-16/20 deglycosylated with PNGase F (domain or fragment)
chain: B4 chain
modifications: N-linked glycans at Asn1011 and Asn1077 removed with PNGase F
B6: SCR-18H, glycosylated single-domain fragment of complement factor H expressed in Pichia pastoris (domain or fragment)
chain: RDTSCVNPPTVQNAYIVSRQMSKYPSGERVRYQCRSPYEMFGDEEVMCLNGN(glycan)WTEPPQCKDST
modifications: reading uncertain; also: N-linked hyperglycosylation (Pichia) at Asn1077, recombinant protein
B7: SCR-17H, glycosylated single-domain fragment of complement factor H expressed in Pichia pastoris (domain or fragment)
chain: IKTDCLSLPSFENAIPMGEKKDVYKAGEQVTYTCATYYKMDGASN(glycan)VTCINSRWTGRPTCRDTS
modifications: reading uncertain; also: N-linked hyperglycosylation (Pichia) at Asn1011, recombinant protein
B8: SCR-16/18H, glycosylated three-domain fragment of complement factor H expressed in Pichia pastoris (domain or fragment)
chain: EGLPCKSPPEISHGVVAHMSDSYQYGEEVTYKCFEGFGIDGPAIAKCLGEKWSHPPSCIKTDCLSLPSFENAIPMGEKKDVYKAGEQVTYTCATYYKMDGASNVTCINSRWTGRPTCRDTSCVNPPTVQNAYIVSRQMSKYPSGERVRYQCRSPYEMFGDEEVMCLNGNWTEPPQCKDST
modifications: Pichia hyperglycosylated N-linked glycans at Asn1011 and Asn1077
B9: SCR-16/18H deglycosylated with PNGase F (domain or fragment)
chain: B8 chain
modifications: N-linked glycans at Asn1011 and Asn1077 treated with PNGase F (the paper suggests that removal may have been impeded)
B10: SCR-17/18H, glycosylated two-domain fragment of complement factor H expressed in Pichia pastoris (domain or fragment)
chain: IKTDCLSLPSFENAIPMGEKKDVYKAGEQVTYTCATYYKMDGASNVTCINSRWTGRPTCRDTSCVNPPTVQNAYIVSRQMSKYPSGERVRYQCRSPYEMFGDEEVMCLNGNWTEPPQCKDST
modifications: Pichia hyperglycosylated N-linked glycans (Man8-18GlcNAc2) at Asn1011 and Asn1077

One data set deals with T1, complement C3b (human, UniProt P01024 23-667; P01024 749-1663, free thiol group in C3b blocked with iodoacetamide (the paper does not say on which chain)).
T1 construct: Amine-coupled to a CM5 chip in the SPR experiment
T1 sequence (P01024 23-667, chain 1 of 2): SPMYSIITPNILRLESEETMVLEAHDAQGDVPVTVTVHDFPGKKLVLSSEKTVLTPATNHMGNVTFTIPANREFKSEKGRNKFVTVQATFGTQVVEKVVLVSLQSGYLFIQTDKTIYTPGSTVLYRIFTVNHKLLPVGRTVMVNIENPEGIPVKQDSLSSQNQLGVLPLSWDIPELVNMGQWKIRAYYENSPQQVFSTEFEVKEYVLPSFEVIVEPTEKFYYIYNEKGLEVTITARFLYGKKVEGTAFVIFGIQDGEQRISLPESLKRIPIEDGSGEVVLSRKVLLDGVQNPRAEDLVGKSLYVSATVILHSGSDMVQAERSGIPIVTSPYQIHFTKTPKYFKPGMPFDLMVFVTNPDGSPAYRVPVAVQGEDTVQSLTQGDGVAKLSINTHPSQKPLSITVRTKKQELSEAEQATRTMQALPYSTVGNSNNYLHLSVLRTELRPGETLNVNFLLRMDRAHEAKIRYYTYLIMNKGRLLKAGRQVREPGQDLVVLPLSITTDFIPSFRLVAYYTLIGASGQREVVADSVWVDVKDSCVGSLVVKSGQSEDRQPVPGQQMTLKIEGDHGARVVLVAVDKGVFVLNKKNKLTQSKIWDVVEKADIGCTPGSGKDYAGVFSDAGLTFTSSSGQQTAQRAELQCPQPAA
T1 sequence (P01024 749-1663, chain 2 of 2): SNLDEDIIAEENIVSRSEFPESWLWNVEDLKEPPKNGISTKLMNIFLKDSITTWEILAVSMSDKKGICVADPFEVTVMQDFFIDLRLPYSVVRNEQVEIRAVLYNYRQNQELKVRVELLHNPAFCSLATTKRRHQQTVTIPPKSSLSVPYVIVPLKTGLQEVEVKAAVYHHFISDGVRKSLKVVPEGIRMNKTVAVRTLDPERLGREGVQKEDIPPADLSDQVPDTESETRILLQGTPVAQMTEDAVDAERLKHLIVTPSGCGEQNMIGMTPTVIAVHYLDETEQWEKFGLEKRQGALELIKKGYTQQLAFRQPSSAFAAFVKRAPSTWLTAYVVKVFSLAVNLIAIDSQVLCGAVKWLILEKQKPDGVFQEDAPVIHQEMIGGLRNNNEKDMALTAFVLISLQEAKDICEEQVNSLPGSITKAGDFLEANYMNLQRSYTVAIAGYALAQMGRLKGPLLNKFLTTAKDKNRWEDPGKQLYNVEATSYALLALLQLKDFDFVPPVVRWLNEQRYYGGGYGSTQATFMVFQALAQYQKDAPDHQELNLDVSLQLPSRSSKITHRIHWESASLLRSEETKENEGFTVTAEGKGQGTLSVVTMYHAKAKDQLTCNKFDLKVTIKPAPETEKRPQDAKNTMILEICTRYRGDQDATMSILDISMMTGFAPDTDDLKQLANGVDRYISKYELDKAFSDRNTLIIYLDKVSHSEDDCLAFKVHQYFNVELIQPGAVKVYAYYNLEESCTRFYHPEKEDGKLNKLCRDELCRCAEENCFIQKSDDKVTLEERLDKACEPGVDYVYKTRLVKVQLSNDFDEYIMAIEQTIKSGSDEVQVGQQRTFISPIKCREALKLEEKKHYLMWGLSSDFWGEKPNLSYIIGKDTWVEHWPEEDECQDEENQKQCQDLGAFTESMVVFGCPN
The experiment in a line: SPR; Biacore X100, C3b amine-coupled to a CM5 chip, CFH preparations flowed at 0.05 to 7.75 μM, 25 °C, Hepes buffer with 0.005% Tween20, single-cycle, 1:1 steady-state affinity fit. Particulars: both partners purified.
The molecule B1 showed a dissociation constant Kd of 900 ± 60 nM. On the same count and under the same terms, the value for B2 was 2530 ± 420 nM; that for B3 was 3780 ± 450 nM.

A further data set deals with the molecule itself. Briefly: AUC; sedimentation velocity of the SCR fragments, 20 °C, 50,000 rpm, Hepes buffer (10 mM Hepes, 137 mM NaCl, pH 7.4), c(s) analysis in SEDFIT, proportions of monomer and dimer from peak integration; monomer to dimer.
Conditions: not given
On to B4, for which the “stoichiometry N” value worked out at 2. Still for that read-out and setting: the value for B5 was 2.

In the case of B6, the “stoichiometry N” value amounted to 2. On the same count and under the same terms, the value for B7 was 2.

In the case of B8, the “stoichiometry N” value is 2. Same read-out and setting: the value for B9 was 2. Take B10: the “stoichiometry N” value is 2.

Another data set concerns the molecule itself. The description is as above.
Conditions: not given
This is another data set of the same source.
B4 yielded a proportion of dimer of 8%. On the same count and under the same terms, the figure for B5 is 2%. As to B6, the proportion of dimer is 57%. The molecule B7 gave a proportion of dimer of 67%. In turn, B8 gave a proportion of dimer of 78%. Still for that read-out and setting: the figure for B9 is 63%; for B10 it is 72%.
